Measurements from PMC3317677 (International Journal of Molecular Sciences, 2012).
Changes are numbered by the printed parent chain.

T1: DENV1 envelope protein domain III (EDIII, aa295-395) (Dengue virus type 1, Hawaii, strain)
T1 construct: also called DENV1 EDIII; EDIII from DENV1
T1 chain: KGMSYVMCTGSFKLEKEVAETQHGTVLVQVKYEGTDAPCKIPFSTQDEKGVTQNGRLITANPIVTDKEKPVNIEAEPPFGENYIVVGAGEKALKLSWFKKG

B1: C9 IgG (chimeric mouse/human IgG) (antibody, V domains shown)
VH: EVQLQQSGAELVRPGASVKLSCKALGYRFTDYEMYWVKQTPAHGLEWIGGIHPRSGNTAYNQKFKDKATLTADKSSSTAYMELSSLTSEDSAVYYCTTSLYWGQGTLVTVSA
VL: DVLMTQTPLSLPVILGDQASISCRSSQSLVHSNGNTYLHWYLQKPGQSPKLLIYSIFNRFSGVPDRFSGSGSGTDFTLKISRVEAEDLGVYFCSQGTHVPWTFGGGTKLEIK
notes: Bivalent IgG
B2: C9 Fab (chimeric mouse/human Fab) (Fab, V domains shown)
VH: B1 VH
VL: B1 VL
B3: F1 Fab (chimeric mouse/human Fab) (Fab, V domains shown)
VH: B1 VH with Q3K, Q5V, Q6E
VL: B1 VL with V2I, T7S, I14S, N33T, S55K, I56V, F57S, I111L

Legend:
[1] = target: T1, DENV1 envelope protein domain III …; test: ELISA; details: both partners purified
[2] = target: T2, DENV3 envelope protein domain III (EDIII, aa295-395) (Dengue virus type 3, …, UniProt P27915, strain); test: ELISA; details: both partners purified
T2 construct: also called DENV3 EDIII; EDIII from DENV3

[3] = target: T3, DENV4 envelope protein domain III (EDIII, aa295-395) (Dengue virus type 4, …, UniProt Q58HT7, strain); test: ELISA; details: both partners purified
T3 construct: also called DENV4 EDIII; EDIII from DENV4

[4] = target: DENV2 envelope (E) protein in DENV2 infected BHK-21 cells (Dengue virus type 2, GenBank EU081177.1, UniProt A9LIC9, strain); test: immunostaining of cells or tissue; details: one partner purified

Row | Binder | fold stronger interaction than the C9 Fab (average) [1] | fold stronger interaction than the C9 Fab (average) [2] | binding result [3] | binding result [4] | binding result [1] | binding result [2]
1 | B1 | ~30 times | ~30 times | no binding | binds | – | –
2 | B2 | – | – | no binding | – | – | –
3 | B3 | – | – | – | – | binds | binds
